Data reported in article PMC7360063, “Brassinosteroids regulate root meristem development by mediating BIN2-UPB1 module in Arabidopsis” (PLoS Genetics, 2020).
One block for each molecule: values may come before it.

B1: His-SUMO-UPB1 (natural protein, Arabidopsis, UniProt O22901 1-102, looked up)
chain: MGVTLEGQRKESIWVLMRRQRARRALVKKIMIRPRKSVEASRRPCRAIHRRVKTLKELVPNTKTSEGLDGLFRQTADYILALEMKVKVMQTMVQVLTETNCV
notes: UPB1, Arabidopsis, At2g47270; The phosphorylation methods speak of a 6x His tag; source: E. coli, purified

Columns and labels:
PRE3 = PRE3 (UniProt Q9CA64); test: anti-HA co-IP, anti-GFP blot; settings: reference: wild type UPB1; sites S37,S41
PRE2 = PRE2 (UniProt Q9LXG5); test: anti-HA co-IP, anti-GFP blot; settings: reference: wild type UPB1; sites S37,S41
MBP-BIN2 = molecular target: T1, MBP-BIN2 (Arabidopsis, UniProt Q39011 1-380); test: pull-down; His pull-down: about 30 ug His-SUMO-UPB1 with 30 ug MBP-BIN2, GST-PRE2 or GST-PRE3 in 400 ul 20 mM Tris-HCl pH 8.0, 150 mM NaCl, 0.2% Triton; about 3 h at 4 C; blots with anti-His, anti-MBP, anti-GST; settings: both partners purified
T1 construct: BIN2, Arabidopsis, At4g18710; source: E. coli, purified
T1 sequence (looked up): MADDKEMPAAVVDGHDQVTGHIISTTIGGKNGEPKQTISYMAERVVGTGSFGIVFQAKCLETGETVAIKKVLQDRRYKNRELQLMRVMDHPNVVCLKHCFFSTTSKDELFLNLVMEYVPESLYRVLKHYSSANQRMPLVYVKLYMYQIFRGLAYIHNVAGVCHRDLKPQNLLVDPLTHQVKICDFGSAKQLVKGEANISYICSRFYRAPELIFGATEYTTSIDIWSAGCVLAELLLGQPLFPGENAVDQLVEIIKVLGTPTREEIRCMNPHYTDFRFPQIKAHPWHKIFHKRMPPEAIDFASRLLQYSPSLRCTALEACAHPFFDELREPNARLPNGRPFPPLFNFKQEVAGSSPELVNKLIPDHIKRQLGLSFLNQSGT

His-SUMO-UPB1 = molecular target: B1; test: as above; settings: both partners purified

Molecule: UPB1 (UPBEAT1) (from UniProt O22901) UPB1 S37A S41A
binding against the reference (PRE3): stronger | binding against the reference (PRE2): stronger

Molecule: B1
binding result (MBP-BIN2): binds

More lines, now with the values ahead:

binding result (His-SUMO-UPB1): binds
B2: GST-PRE3 (natural protein, Arabidopsis, UniProt Q9CA64 1-93, looked up)
chain: MSGRRSRSRQSSGTSRISEDQINDLIIKLQQLLPELRDSRRSDKVSAARVLQDTCNYIRNLHREVDDLSERLSELLANSDTAQAALIRSLLTQ
notes: PRE3, Arabidopsis, At1g74500; source: E. coli, purified

binding result (His-SUMO-UPB1): binds
B3: GST-PRE2 (natural protein, Arabidopsis, UniProt Q9LXG5 1-94, looked up)
chain: MSSSRRSRQASSSSRISDDQITDLISKLRQSIPEIRQNRRSNTVSASKVLQETCNYIRNLNKEADDLSDRLTQLLESIDPNSPQAAVIRSLING
notes: PRE2, Arabidopsis, At5g15160; source: E. coli, purified
